B1: Formula 19: Recombinant lectin of SEQ ID NO 2 (via Formula C) conjugated with Tesirine, DAR 1.32 (conjugate)
chain: TYKITVRVYQTNPDAFFHPVEKTVWKYANGGTWTITDDQHVLTMGGSGTSGTLRFHADNGESFTATFGVHNYKRWCDIVTNLAADETGMVINQQYYSQKNREEARERQLSNYQVKNAKGRNFQIVYTEAEGNDLHANLIIG
modifications: Tesirine conjugate via Formula C linker
B2: Formula 18: Recombinant lectin of SEQ ID NO 5 conjugated with Tesirine, DAR 1.05 (conjugate)
chain: SYKITVRVYQTNPDAFFHPVEKTVWKYANGGTWTITDDQHVLTMGGSGTSGTLRFHADNGESFTATFGVHNYKRWGDIVTNLAADETGMVINQQYYSQKNREEARERQLSNYQVKNAKGRNFQIVYTEAEGNDLHANLIIGC
modifications: Tesirine conjugate
B3: SEQ ID NO: 5: recombinant S. rolfsii lectin variant with T1S, C76G and cysteine added at C terminal end (protein)
chain: B2 chain
modifications: C-terminal cysteine added
notes: recombinant S. rolfsii lectin variant with T1S, C76G and cysteine added at C terminal end

Tests used:
[1] = tested on: ovarian cancer cell line (PA-1); assay: Cytotoxicity assay, cell titer glow luminescence, 72 h; assay type: cell-based; settings: for activity against PA-1 cell lines (in words): IC50 values in nanomoles
Method: (§1) T-24 Cell line were cultured in McCoy's 5a Medium Modified supplemented with 10% FBS and the PA-1 Cell line was cultured in EMEM Media supplemented with 10% FBS. The assay was performed by plating 5,000 cells/well and incubated at 37° C. overnight. […] Each concentration was added in triplicate and media-only wells used as a control. After incubation for 72 h cell titer glow (Promega) reagent (50 μL) was added to each well and the plates shaken for 5 mins and the luminescence was recorded. Percent viability was determined by dividing luminescence of the treated well by the non-treated well and multiplying by 100. Data was analysed using non-linear regression with a logarithmic scale.
(§2) 5,000 cells/well were plated and incubated at 37° C. overnight. Conjugates/vehicle control dilutions were made in respective media and added to cells. Volume added: 50 uL to each well. Starting treatment concentration was 1 uM for Conjugate of formula 16 and 18, and control SEQ ID NO: 5 alone and 10% for vehicle control (1×PBS with 20% DMA) and then diluted 10-fold down for a total of 11 treatment dilutions. Each concentration was analysed in triplicates. Media-only wells was used as a control to calculate percent viability. Cell titer glow reagent (volume: 50 uL) was added to each well, the plate was shaken for 5 mins and the luminescence was recorded. Drug Treatment Time: 72 hours. Percent viability was calculated by dividing the luminescence signal obtained for each treated well by the untreated well (media-only control) and multiplying by 100.

[2] = tested on: human urinary bladder cancer cell line (T-24); assay: as above; assay type: cell-based
Method: as §1, §2

| Molecule | IC50 ([1]; 72 h) [nM] | IC50 ([1]; 72 h, listed as formula 19) [nM] | activity against PA-1 cell lines (in words) [1] | IC50 ([2]; 72 h) [nM] | activity against T-24 cell lines (in words) ([2]; IC50 values in nanomoles) | IC50 values, PA-1 Cell line ([1]; 72 h) [µg/mL] | cytotoxic effects below 10 μM concentration ([1]; below 10 μM) | cytotoxic effects below 10 μM concentration ([2]; below 10 μM) |
| --- | --- | --- | --- | --- | --- | --- | --- | --- |
| B1 | 5.22 | 5.22 | potent activity |  |  |  |  |  |
| B2 | 1.04 |  | potent activity | 19.9 | potent activity |  |  |  |
| B3 |  |  |  |  |  | 16 | does not exhibit major cytotoxic effects | does not exhibit major cytotoxic effects |

Reference: US20250302974A1, “LECTIN-DRUG CONJUGATES” (UNICHEM LABORATORIES LIMITED, priority 2021, published 2025)
